doi:10.1101/2025.11.17.688911

What was measured:
[1] = target: surface-immobilized biotinylated microtubules, Q2XVP4;Q767L7; assay: fluorescence intensity of GFP-tagged MAP9-MTBD on surface-immobilized MTs (fluorescence microscopy); conditions: 100 nM MAP9 construct (stated for panel h); parent: est. 0.72; read off a plot
[2] = target: surface-immobilized biotinylated microtubules (pig) (UniProt Q2XVP4); assay: TIRF microscopy, fluorescence intensity of GFP-tagged MAP on microtubules; biotinylated MTs held on a streptavidin-coated coverslip; one concentration of WT or mutant MAP9 construct (100 nM in Fig. 1h-i and Extended Data Fig. 6b); BRB80, 100 mM salt

Substance | response [1] | percent reduction of MT binding against WT MAP9-MTBD [2]
MAP9-MTBD (Human MAP9 (302–647)::GFP::strepII) (from UniProt Q49MG5) F473A; F516A | 0.17 a.u. | –
MAP9-MTBD (Human MAP9 (302–647)::GFP::strepII) (from UniProt Q49MG5) W432A; W476A; W519A; W563A; W606A | 0.04 a.u. | –
MAP9-MTBD R1R2 (from UniProt Q49MG5 302-647) (domain or fragment) | – | 80%
